Source: publication PMC4296922 (ACS Applied Materials & Interfaces, 2014)
Read-outs that look alike come from different tables or passages of the source.

Columns and labels:
[1] = target: T1, aerolysin pore (activated aerolysin in a planar lipid bilayer) (UniProt P09167 24-445); assay: single-channel nanopore current recording
[2] = target: T1, aerolysin pore (activated aerolysin in …); assay: single-channel nanopore current recording; remark: listed apart in the source

T1 sequence (P09167 24-445): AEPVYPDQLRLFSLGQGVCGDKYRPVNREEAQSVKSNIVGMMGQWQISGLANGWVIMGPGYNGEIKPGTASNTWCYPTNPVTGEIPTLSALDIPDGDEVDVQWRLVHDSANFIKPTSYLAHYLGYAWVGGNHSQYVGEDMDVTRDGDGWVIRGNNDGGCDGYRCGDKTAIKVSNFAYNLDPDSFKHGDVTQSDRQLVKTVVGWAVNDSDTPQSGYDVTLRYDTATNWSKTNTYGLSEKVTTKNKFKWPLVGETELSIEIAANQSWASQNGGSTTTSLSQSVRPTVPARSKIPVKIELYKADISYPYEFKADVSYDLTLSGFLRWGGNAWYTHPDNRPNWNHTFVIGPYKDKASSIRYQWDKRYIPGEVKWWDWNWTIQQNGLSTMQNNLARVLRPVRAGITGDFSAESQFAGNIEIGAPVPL

B1: synthetic peptide Sb2(76-93)s (peptide)
peptide: QFETSAAKLKRKYWWKNL
[1]
  kon: 8.1e+07 M⁻¹ s⁻¹
[2]
  kon: 8.7e+06 M⁻¹ s⁻¹
